Source: the supplement of paper PMC10724198
± gives the standard deviation of the averaged measurements.

What was measured:
Saccharomyces cerevisiae [1] = assay: protein stability index of tFT-peptide fusion (C-terminal peptide) (PSI (0-1 scale)); higher = more stable (slower turnover)
Method: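 MPS profiling in S. cerevisiae of the tFT-X12 degron library: putative degron peptides plus stable controls, 12 aa, fused to the C-terminus of a sfGFP-mCherry timer. Cells are FACS-sorted into 8 mCherry/sfGFP bins and deep-sequenced. PSI runs from 0 (unstable) to 1 (stable). Backgrounds are wild type, das1Δ and doa10Δ at 30 °C, and wild type, das1Δ, cdc34-1 and cdc53-1 at 37 °C; 2-3 technical replicates each.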

Saccharomyces cerevisiae [2] = assay: as above; conditions: genetic background: wild type; temperature: 30 C
[3] = genetic background: cdc34-1, temperature: 37 C
[4] = genetic background: cdc53-1, temperature: 37 C
[5] = genetic background: das1 deletion, temperature: 30 C
[6] = genetic background: das1 deletion, temperature: 37 C
[7] = genetic background: doa10 deletion, temperature: 30 C
[8] = genetic background: wild type, temperature: 30 C
[9] = genetic background: wild type, temperature: 37 C
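Also: PSI is a weighted mean of sequencing reads over stability bins, variants kept only with over 10 reads, mCherry proximal and sfGFP distal, peptide attached via GGGS linker.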

Row | Sequence | protein stability index (Saccharomyces cerevisiae [1]; [3]) | protein stability index (Saccharomyces cerevisiae [1]; [4]) | protein stability index (Saccharomyces cerevisiae [1]; [5]) | protein stability index (Saccharomyces cerevisiae [1]; [6]) | protein stability index (Saccharomyces cerevisiae [1]; [7]) | protein stability index (Saccharomyces cerevisiae [1]; [8]) | protein stability index (Saccharomyces cerevisiae [1]; [9]) | protein stability index (Saccharomyces cerevisiae [2])
1 | FLCLFFLAVIKL | 0.241 ± 0.018 | 0.188 ± 0.012 | 0.344 ± 0.034 | 0.412 ± 0.031 | 0.502 ± 0.007 | 0.309 ± 0.037 | 0.356 ± 0.013 | 0.383 ± 0.028
2 | YPVAWSSAIIIR | 0.438 ± 0.041 | 0.4531 ± 0.0036 | 0.362 ± 0.022 | 0.5314 ± 0.0037 | 0.423 ± 0.018 | 0.371 ± 0.017 | 0.506 ± 0.0061 | 0.435 ± 0.025
3 | RFCLPLRLPVTT | 0.533 ± 0.028 | 0.5626 ± 0.0042 | 0.461 ± 0.037 | 0.5865 ± 0.0022 | 0.439 ± 0.0083 | 0.458 ± 0.016 | 0.589 ± 0.045 | 0.4497 ± 0.0012
4 | VGGSRGARLGVG | 0.352 ± 0.012 | 0.448 ± 0.014 | 0.389 ± 0.011 | 0.426 ± 0.0085 | 0.3945 ± 0.00071 | 0.384 ± 0.01 | 0.42 ± 0.021 | 0.386 ± 0.014
5 | RLVGVRWEVCNL | 0.91 ± 0.041 | 0.902 ± 0.024 | 0.78 ± 0.041 | 0.86371 ± 0.00039 | 0.771 ± 0.022 | 0.772 ± 0.014 | 0.863 ± 0.019 | 0.744 ± 0.015
6 | RWGLFIGIVIGF | 0.146 ± 0.0085 | 0.211 ± 0.003 | 0.219 ± 0.037 | 0.338 ± 0.0087 | 0.235 ± 0.014 | 0.217 ± 0.024 | 0.317 ± 0.025 | 0.337 ± 0.021
7 | FLFLLLFLLLCC | 0.467 ± 0.0069 | 0.488 ± 0.0017 | 0.377 ± 0.03 | 0.534 ± 0.049 | 0.349 ± 0.011 | 0.318 ± 0.033 | 0.4634 ± 0.00047 | 0.407 ± 0.0033
8 | AFRFFWFFFFTS | 0.536 ± 0.066 | 0.619 ± 0.042 | 0.466 ± 0.024 | 0.603 ± 0.035 | 0.446 ± 0.0062 | 0.426 ± 0.017 | 0.557 ± 0.018 | 0.445 ± 0.03
9 | TSFLHLFVAAII | 0.588 ± 0.027 | 0.632 ± 0.045 | 0.499 ± 0.02 | 0.5932 ± 0.0013 | 0.415 ± 0.009 | 0.434 ± 0.012 | 0.5505 ± 0.004 | 0.513 ± 0.024
10 | RSIAFLLGQFLS | 0.6679 ± 0.0052 | 0.745 ± 0.016 | 0.68 ± 0.027 | 0.74305 ± 0.00053 | 0.372 ± 0.019 | 0.395 ± 0.047 | 0.637 ± 0.016 | 0.467 ± 0.013
11 | RTALSSPRPALL | 0.6896 ± 0.0052 | 0.7635 ± 0.0053 | 0.701 ± 0.017 | 0.75 ± 0.0094 | 0.7131 ± 0.0061 | 0.723 ± 0.011 | 0.733 ± 0.0077 | 0.7799 ± 0.006
12 | VFFTSLPPLLRA | 0.433 ± 0.015 | 0.4543 ± 0.0034 | 0.372 ± 0.021 | 0.51 ± 0.01 | 0.341 ± 0.006 | 0.37 ± 0.032 | 0.486 ± 0.013 | 0.458 ± 0.0096
13 | LIMIRLLYLRLI | 0.166 ± 0.15 | 0.153 ± 0.042 | 0.269 ± 0.029 | 0.365 ± 0.022 | 0.105 ± 0.017 | 0.0628 ± 0.033 | 0.102 ± 0.0037 | 0.102 ± 0.035
